Data set [1] concerns the target T1, PLIP (Mus musculus, UniProt Q66GT5).
T1 construct: ligating a PCR product encoding full-length PLIP; made in house; host or cells: Escherichia coli BL21 (DE3) CodonPlus RIL
T1 sequence (Q66GT5 32-193): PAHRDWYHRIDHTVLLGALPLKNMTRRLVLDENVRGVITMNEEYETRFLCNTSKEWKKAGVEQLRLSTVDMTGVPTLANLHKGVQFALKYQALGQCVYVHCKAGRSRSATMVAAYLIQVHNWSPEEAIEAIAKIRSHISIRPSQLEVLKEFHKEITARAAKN
Nature of the data set: Phosphatase activity of various PTPs (malachite green / radiolabeled protein substrates). The data set is classed as biochemical, murine. As to conditions: for Phosphatase activity, PLIP: mole of phosphate released/min/mol of enzyme, pH 5.5, triplicate, this study. On the procedure:
Recombinant murine PLIP was expressed as a fusion protein with N-terminal GST and 6-His tags in Escherichia coli BL21 (DE3) CodonPlus RIL cells (Stratagene). The expression construct was assembled by ligating a PCR product encoding full-length PLIP into the 5′-EcoR1 and 3′-Xho1 sites of a modified pET41 vector (pSJ6), kindly provided by Zhaohui Xu (University of Michigan). […] Cultures were then chilled on ice for 20 min, supplied with fresh antibiotics, induced with IPTG to a final concentration of 0.4 mM, and allowed to grow overnight @ 25° C., as previously described (Taylor and Dixon, 2003). All subsequent steps were performed @ 4° C. The cultures were pelleted by spinning @ 6000 rpm for 10 min in a Sorvall GSA rotor, resuspended in 30 ml of buffer (20 mM Imidazole, 50 mM Tris pH 7.4, 300 mM NaCl) with Complete protease inhibitors (Roche), and lysed via French Press. Insoluble material was removed by centrifugation @ 50,000 rpm for 30 min. The fusion protein was purified from the soluble supernatant first over Ni^2+ agarose beads, and then by successive separation on Superdex 75 and 200 gel filtration columns (Amersham). The resulting protein was concentrated, flash frozen in liquid nitrogen, and stored @−80° C. in 25% glycerol, 2 mM EDTA, and 2 mM DTT until use.
Di-C8 phosphoinosites (Echelon) and Dioleoyl-phosphatidylserine (Sigma) were dried together in a Speed Vac and resuspended via sonication in 18 μl assay buffer (100 mM sodium acetate, 50 mM bis-Tris, 50 mM Tris (pH 5.5), 10 mM DTT) to final concentrations of 50 μM and 500 μM, respectively. After prewarming at 37° C. for 5 min, reactions were initiated by the addition of 20 to 2000 ng of GST-PLIP diluted in assay buffer containing 1.0 mg/ml gelatin. Reactions were quenched after 5-30 min by the addition of 20 μl 0.1 M N-ethylmaleimide, and spun at 18,000×g for 10 min to sediment the lipid aggregates. […] Samples were allowed to sit for 40 minutes for color development before measuring absorbance at 620 nm. Inorganic phosphate release was quantitated by comparison to a standard curve of KH2PO4 in dH2O. […]

Data set [2] addresses PTEN (Homo sapiens, UniProt P60484). As to conditions: protein substrates; Ref. 43; cited from earlier work.
Data set [3] deals with T2, TC-PTP (Homo sapiens, UniProt P17706).
T2 sequence (P17706 1-415): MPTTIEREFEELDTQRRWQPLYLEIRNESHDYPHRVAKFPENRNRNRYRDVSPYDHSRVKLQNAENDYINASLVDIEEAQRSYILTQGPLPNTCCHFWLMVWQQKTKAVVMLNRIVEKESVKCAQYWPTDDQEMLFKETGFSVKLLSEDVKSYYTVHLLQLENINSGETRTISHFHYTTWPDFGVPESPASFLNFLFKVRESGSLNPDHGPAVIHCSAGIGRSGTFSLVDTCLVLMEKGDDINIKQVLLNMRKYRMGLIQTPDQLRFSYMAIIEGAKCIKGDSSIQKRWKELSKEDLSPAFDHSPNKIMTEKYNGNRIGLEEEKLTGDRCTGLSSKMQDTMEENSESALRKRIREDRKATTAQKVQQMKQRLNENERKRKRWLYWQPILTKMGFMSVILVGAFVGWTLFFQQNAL
In words: Phosphatase activity of various PTPs (malachite green / radiolabeled protein substrates). The data set is classed as biochemical. As to conditions: mole of phosphate released/min/mol of enzyme; triplicate; this study. On the procedure: (§1) Di-C8 phosphoinosites (Echelon) and Dioleoyl-phosphatidylserine (Sigma) were dried together in a Speed Vac and resuspended via sonication in 18 μl assay buffer (100 mM sodium acetate, 50 mM bis-Tris, 50 mM Tris (pH 5.5), 10 mM DTT) to final concentrations of 50 μM and 500 μM, respectively. After prewarming at 37° C. for 5 min, reactions were initiated by the addition of 20 to 2000 ng of GST-PLIP diluted in assay buffer containing 1.0 mg/ml gelatin. Reactions were quenched after 5-30 min by the addition of 20 μl 0.1 M N-ethylmaleimide, and spun at 18,000×g for 10 min to sediment the lipid aggregates. Twenty-five microliters of the supernatant was added to 50 μl of malachite green reagent and vortexed. Samples were allowed to sit for 40 minutes for color development before measuring absorbance at 620 nm. Inorganic phosphate release was quantitated by comparison to a standard curve of KH2PO4 in dH2O.
(§2) Assays using radiolabeled protein substrates or pNPP were carried in assay buffer containing 50 mM sodium acetate, 25 mM bis-Tris, 25 mM Tris, and 2 mM DTT at pH 5.5 (GST-PLIP), 6.0 (VHR), or 7.0 (TC-PTP), at 30° C. Radiolabeled proteins and pNPP were prepared and assayed as previously reported (Taylor et al., 1997).
(§3) Due to the only recent emergence of PI(5)P as a known signaling molecule, few PTP's have been tested for activity against this substrate. To ensure that activity against PI(5)P is not a common feature of PTP's, membrane-bound di-C8 PI(5)P was assayed using a known tyrosine-specific PTP (TC-PTP) and a known dual-specific PTP (VHR) (Ishibashi et al., 1992; Zhao et al., 1992; Ruzzene et al., 1993; Zhou et al., 1994; Denu et al., 1995).

The target of data set [4] is VHR (Homo sapiens, UniProt P51452). The data set is described as above. The data set is classed as biochemical. As to conditions: mole of phosphate released/min/mol of enzyme; triplicate; this study. On the procedure: as §1, §2, §3
For data set [5], the target named is T3, MTM1 (Homo sapiens, UniProt Q13496).
T3 sequence (Q13496 1-603): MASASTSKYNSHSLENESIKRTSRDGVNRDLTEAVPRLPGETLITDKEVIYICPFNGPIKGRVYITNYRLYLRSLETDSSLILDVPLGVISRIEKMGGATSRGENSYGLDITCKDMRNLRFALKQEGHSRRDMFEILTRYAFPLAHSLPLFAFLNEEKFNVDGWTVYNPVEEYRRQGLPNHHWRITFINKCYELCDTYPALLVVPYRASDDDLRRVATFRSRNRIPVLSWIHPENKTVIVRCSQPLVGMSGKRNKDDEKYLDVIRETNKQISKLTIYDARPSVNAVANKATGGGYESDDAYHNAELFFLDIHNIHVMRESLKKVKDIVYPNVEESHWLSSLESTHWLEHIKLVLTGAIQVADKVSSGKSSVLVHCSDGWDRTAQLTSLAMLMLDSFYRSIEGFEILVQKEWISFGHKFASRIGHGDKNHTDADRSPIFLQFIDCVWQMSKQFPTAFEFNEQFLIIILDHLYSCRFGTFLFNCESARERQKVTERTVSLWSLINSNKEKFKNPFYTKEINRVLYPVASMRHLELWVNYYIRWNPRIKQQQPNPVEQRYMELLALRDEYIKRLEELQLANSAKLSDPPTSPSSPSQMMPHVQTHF
As to conditions: Ref. 32; cited from earlier work.

Marks after values point to notes of the source that are not given here.

Chain of VHR (P51452 whole entry, species assumed): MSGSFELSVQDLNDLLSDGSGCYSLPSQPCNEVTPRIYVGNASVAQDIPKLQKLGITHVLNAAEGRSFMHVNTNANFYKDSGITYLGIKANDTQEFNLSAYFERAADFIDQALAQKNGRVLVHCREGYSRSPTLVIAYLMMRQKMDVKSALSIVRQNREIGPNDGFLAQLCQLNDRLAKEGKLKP
Chain of PTEN (P60484 whole entry, species assumed): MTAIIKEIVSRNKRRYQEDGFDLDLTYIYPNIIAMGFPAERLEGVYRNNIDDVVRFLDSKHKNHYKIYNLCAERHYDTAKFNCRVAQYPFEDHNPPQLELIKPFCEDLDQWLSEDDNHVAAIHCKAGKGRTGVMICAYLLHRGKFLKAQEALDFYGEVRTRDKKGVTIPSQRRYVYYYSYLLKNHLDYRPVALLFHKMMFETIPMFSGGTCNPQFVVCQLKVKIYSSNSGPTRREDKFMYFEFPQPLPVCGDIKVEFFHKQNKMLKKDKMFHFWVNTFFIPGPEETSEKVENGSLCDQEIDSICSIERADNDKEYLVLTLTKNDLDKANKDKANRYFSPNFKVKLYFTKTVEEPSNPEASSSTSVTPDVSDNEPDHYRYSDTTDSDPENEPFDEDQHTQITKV

B1: myelin basic protein: radiolabeled myelin basic protein (protein, UniProt P02686 1-304, looked up)
Myelin basic protein: MGNHAGKRELNAEKASTNSETNRGESEKKRNLGELSRTTSEDNEVFGEADANQNNGTSSQDTAVTDSKRTADPKNAWQDAHPADPGSRPHLIRLFSRDAPGREDNTFKDRPSESDELQTIQEDSAATSESLDVMASQKRPSQRHGSKYLATASTMDHARHGFLPRHRDTGILDSIGRFFGGDRGAPKRGSGKDSHHPARTAHYGSLPQKSHGRTQDENPVVHFFKNIVTPRTPPPSQGKGRGLSLSRFSWGAEGQRPGFGYGGRASDYKSAHKGFKGVDAQGTLSKIFKLGGRDSRSGSPMARR
modifications: radiolabeled
For the molecule B1, in data set [1] (radiolabeled protein substrates), the “PLIP activity, fold lower than against PI(5)P” value was “approximately 1000 fold”.

B2: MyBP Tyr(P): radiolabeled myelin basic protein substrate, tyrosine phosphorylated (protein, UniProt P02686 1-304, looked up)
Myelin basic protein: MGNHAGKRELNAEKASTNSETNRGESEKKRNLGELSRTTSEDNEVFGEADANQNNGTSSQDTAVTDSKRTADPKNAWQDAHPADPGSRPHLIRLFSRDAPGREDNTFKDRPSESDELQTIQEDSAATSESLDVMASQKRPSQRHGSKYLATASTMDHARHGFLPRHRDTGILDSIGRFFGGDRGAPKRGSGKDSHHPARTAHYGSLPQKSHGRTQDENPVVHFFKNIVTPRTPPPSQGKGRGLSLSRFSWGAEGQRPGFGYGGRASDYKSAHKGFKGVDAQGTLSKIFKLGGRDSRSGSPMARR
modifications: radiolabeled, tyrosine-phosphorylated
In the case of B2, in data set [1], the “Phosphatase activity, PLIP” value was 0.1^b mol/(min mol). The “Phosphatase activity, PTEN” value in data set [2] is ~0.0^c mol/(min mol). In addition, the “Phosphatase activity, TC-PTP” value in data set [3] is recorded as 195^b mol/(min mol). The “Phosphatase activity, VHR” value in data set [4] is 0.5^b mol/(min mol). Moreover, the “Phosphatase activity, MTM1” value in data set [5] is given as ~0.0^d mol/(min mol).

B3: MyBP Ser(P)/Tyr(P): radiolabeled myelin basic protein substrate (protein, UniProt P02686 1-304, looked up)
Myelin basic protein: MGNHAGKRELNAEKASTNSETNRGESEKKRNLGELSRTTSEDNEVFGEADANQNNGTSSQDTAVTDSKRTADPKNAWQDAHPADPGSRPHLIRLFSRDAPGREDNTFKDRPSESDELQTIQEDSAATSESLDVMASQKRPSQRHGSKYLATASTMDHARHGFLPRHRDTGILDSIGRFFGGDRGAPKRGSGKDSHHPARTAHYGSLPQKSHGRTQDENPVVHFFKNIVTPRTPPPSQGKGRGLSLSRFSWGAEGQRPGFGYGGRASDYKSAHKGFKGVDAQGTLSKIFKLGGRDSRSGSPMARR
modifications: radiolabeled, Ser/Tyr-phosphorylated
notes: radiolabeled myelin basic protein substrate
With B3, the “Phosphatase activity, PLIP” value in data set [1] is listed as ~0.0^b mol/(min mol). For the same molecule, in data set [2], the “Phosphatase activity, PTEN” value is ~0.0^c mol/(min mol). Moreover, the “Phosphatase activity, TC-PTP” value in data set [3] was ~0.0^b mol/(min mol). Further, in data set [4], the “Phosphatase activity, VHR” value was ~0.0^b mol/(min mol). Also, the “Phosphatase activity, MTM1” value in data set [5] was ~0.0^d mol/(min mol).

The values above are taken from patent US7749976B2, “Isolated PTPMT1 protein which mediates insulin production and uses thereof” (The Regents of the University of California, priority 2005, dated 2010).
